Measured values: US20240200091A1, “USE OF PROTOPORPHYRINOGEN OXIDASE” (BEIJING DABEINONG BIOTECHNOLOGY CO., LTD., priority 2021, published 2024)

What was measured:
Format in all cases: in vivo
Details in all cases: 7 DAT, number of plants of 24 per genotype, grades
[1] = system: Arabidopsis thaliana T1 plants; assay: flumioxazin tolerance of transgenic Arabidopsis thaliana T1 plants (spray, grade of pesticide damage)
Summary of the method: (§1)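 T1 lines expressing individual PPO variants, control-vector and wild-type plants (24 per genotype) were sprayed 18 days after sowing: oxyfluorfen 180/720, saflufenacil 25/100, flumioxazin 60/240, sulfentrazone 450/900 g ai/ha, or water. Damage graded 0–3 from injured leaf area at 7 DAT.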

[2] = system: Arabidopsis thaliana T1 plants; assay: sulfentrazone tolerance of transgenic Arabidopsis thaliana T1 plants (spray, grade of pesticide damage)
Summary of the method: as §1

[3] = system: Arabidopsis thaliana T1 plants; assay: saflufenacil tolerance of transgenic Arabidopsis thaliana T1 plants (spray, grade of pesticide damage)
Summary of the method: as §1

[4] = system: Arabidopsis thaliana T1 plants; assay: oxyfluorfen tolerance of transgenic Arabidopsis thaliana T1 plants (spray, grade of pesticide damage)
Summary of the method: as §1

B1: PPO7A: nucleotide sequence encoding microbial protoporphyrinogen oxidase PPO7 (SEQ ID NO:7), Arabidopsis thaliana/soybean common codon usage bias (nucleic acid)
DNA: ATGGATAAGATATTAGTCCTGTACAGTAGTCAAGATGGGCAGACGAGGAAGATTGTTGATGCAATGCTTGAAGAAATCTCTGGTTGTGATGTTGTGATTCAAGACTTGCACACACTACCGAAATGCAACCTATCCAAATATGCGAAAGTGTTGATTGGTGCTTCCATAAGGTATGGAAACTTCCATCCTTCTCTTCTCAGCTTCATCAATGCTCATCATGAACAACTTGAGGTTGCTAATGCGGCCTTCTTCTGTGTAAATCTCACTGCCCGAAAACCTGAGAAGCAAACTCCCCAGACAAACGCTTACATGAAGAAGTTTTTACGCTTATCACCATGGAAACCAAAGACCCTTGGAGTGTTTGCAGGAGCTTTGCAATATTCAAGATACAATTGGTGGCAAACCCGTATCATTCAGCTGATAATGAAAATGACTGGTGGCTCAACAGACACATCTCAGGATTTGGAGTTTACTGATTGGGTTAAAGTCCGGTCGTTTGCAAGAGAATTTTGGAGCAAGAGATGA
modifications: The nucleotide sequence of PPO7A
- The grade of pesticide damage/plant: grade 0 ([1]; flumioxazin 60 g ai/ha (1×)): 24 plant
- The grade of pesticide damage/plant: grade 1 ([1]; flumioxazin 60 g ai/ha (1×)): 0 plant
- The grade of pesticide damage/plant: grade 2 ([1]; flumioxazin 60 g ai/ha (1×)): 0 plant
- The grade of pesticide damage/plant: grade 3 ([1]; flumioxazin 60 g ai/ha (1×)): 0 plant
- The grade of pesticide damage/plant: grade 0 ([1]; flumioxazin 240 g ai/ha (4×)): 24 plant
- The grade of pesticide damage/plant: grade 1 ([1]; flumioxazin 240 g ai/ha (4×)): 0 plant
- The grade of pesticide damage/plant: grade 2 ([1]; flumioxazin 240 g ai/ha (4×)): 0 plant
- The grade of pesticide damage/plant: grade 3 ([1]; flumioxazin 240 g ai/ha (4×)): 0 plant
- The grade of pesticide: grade 0 ([2]; sulfentrazone 450 g ai/ha (1×)): 24
- The grade of pesticide: grade 1 ([2]; sulfentrazone 450 g ai/ha (1×)): 0
- The grade of pesticide: grade 2 ([2]; sulfentrazone 450 g ai/ha (1×)): 0
- The grade of pesticide: grade 3 ([2]; sulfentrazone 450 g ai/ha (1×)): 0
- The grade of pesticide: grade 0 ([2]; sulfentrazone 900 g ai/ha (2×)): 22
- The grade of pesticide: grade 1 ([2]; sulfentrazone 900 g ai/ha (2×)): 2
- The grade of pesticide: grade 2 ([2]; sulfentrazone 900 g ai/ha (2×)): 0
- The grade of pesticide: grade 3 ([2]; sulfentrazone 900 g ai/ha (2×)): 0
- The grade of pesticide damage/plant: grade 0 ([3]; saflufenacil 25 g ai/ha (1×)): 24 plant
- The grade of pesticide damage/plant: grade 1 ([3]; saflufenacil 25 g ai/ha (1×)): 0 plant
- The grade of pesticide damage/plant: grade 2 ([3]; saflufenacil 25 g ai/ha (1×)): 0 plant
- The grade of pesticide damage/plant: grade 3 ([3]; saflufenacil 25 g ai/ha (1×)): 0 plant
- The grade of pesticide damage/plant: grade 0 ([3]; saflufenacil 100 g ai/ha (4×)): 4 plant
- The grade of pesticide damage/plant: grade 1 ([3]; saflufenacil 100 g ai/ha (4×)): 20 plant
- The grade of pesticide damage/plant: grade 2 ([3]; saflufenacil 100 g ai/ha (4×)): 0 plant
- The grade of pesticide damage/plant: grade 3 ([3]; saflufenacil 100 g ai/ha (4×)): 0 plant
- The grade of pesticide damage/plant: grade 0 ([4]; oxyfluorfen 180 g ai/ha (1×)): 24 plant
- The grade of pesticide damage/plant: grade 1 ([4]; oxyfluorfen 180 g ai/ha (1×)): 0 plant
- The grade of pesticide damage/plant: grade 2 ([4]; oxyfluorfen 180 g ai/ha (1×)): 0 plant
- The grade of pesticide damage/plant: grade 3 ([4]; oxyfluorfen 180 g ai/ha (1×)): 0 plant
- The grade of pesticide damage/plant: grade 0 ([4]; oxyfluorfen 720 g ai/ha (4×)): 20 plant
- The grade of pesticide damage/plant: grade 1 ([4]; oxyfluorfen 720 g ai/ha (4×)): 4 plant
- The grade of pesticide damage/plant: grade 2 ([4]; oxyfluorfen 720 g ai/ha (4×)): 0 plant
- The grade of pesticide damage/plant: grade 3 ([4]; oxyfluorfen 720 g ai/ha (4×)): 0 plant
